Assay [1] deals with c-MET (Homo sapiens) (UniProt P08581). Nature of the assay: Flow cytometry surface staining of HAP1 WT cells with the isotype control, SSC against PE.
The target in assay [2] is FGFR1. Nature of the assay: Flow cytometry surface staining of HAP1 WT cells with the isotype control, SSC against FITC.
Assay [3] deals with T1, AAV2 particles (adeno-associated virus serotype 2 capsid) (adeno-associated virus serotype 2, UniProt P03135 1-735). The experiment in a line: cell-based or functional assay.
The target of assay [4] is T1, AAV2 particles (adeno-associated virus …). Nature of the assay: ELISA: plates coated with AAV2 virus-like particles, soluble AAVR (MBP-PKD1-5) detected with anti-MBP-HRP, A450. On the technique in general: An ELISA detects its analyte on a solid surface through an enzyme-linked reagent.
Assay [5] shares this target. The experiment in a line: SPR (BIAcore X): His-tagged soluble AAVR immobilised at 2 nM ligand concentration, AAV-2 particles as analyte, Langmuir 1:1 fit. A general note: In SPR one partner is held on a chip, and binding of the other changes the refractive index at the surface.
Assay [6] has the same target. Nature of the assay: SPR (BIAcore X): His-tagged soluble AAVR immobilised at 4 nM ligand concentration, AAV-2 particles as analyte, Langmuir 1:1 fit.
The target is the same in assay [7]. The experiment in a line: SPR (BIAcore X), His-tagged soluble AAVR immobilised on CM5 chip, AAV-2 particles as analyte, Langmuir 1:1 fit.

From US20180327752A1 (Stanford University, published 2018) come the findings set out here.

One may read the EC50 (read off the curve) as the concentration at which the effect is half-maximal. Read a high EC50 (read off the curve) as lower potency in that assay. By Kd is commonly meant the constant that tells how readily two partners part at equilibrium. A high value points to lower affinity. Usually koff stands for the first-order rate constant of dissociation. The low end stands for slow dissociation, the high end for fast dissociation. Broadly, the kon is the second-order rate constant of association. Higher therefore signals fast association.

T1 sequence (P03135 whole entry): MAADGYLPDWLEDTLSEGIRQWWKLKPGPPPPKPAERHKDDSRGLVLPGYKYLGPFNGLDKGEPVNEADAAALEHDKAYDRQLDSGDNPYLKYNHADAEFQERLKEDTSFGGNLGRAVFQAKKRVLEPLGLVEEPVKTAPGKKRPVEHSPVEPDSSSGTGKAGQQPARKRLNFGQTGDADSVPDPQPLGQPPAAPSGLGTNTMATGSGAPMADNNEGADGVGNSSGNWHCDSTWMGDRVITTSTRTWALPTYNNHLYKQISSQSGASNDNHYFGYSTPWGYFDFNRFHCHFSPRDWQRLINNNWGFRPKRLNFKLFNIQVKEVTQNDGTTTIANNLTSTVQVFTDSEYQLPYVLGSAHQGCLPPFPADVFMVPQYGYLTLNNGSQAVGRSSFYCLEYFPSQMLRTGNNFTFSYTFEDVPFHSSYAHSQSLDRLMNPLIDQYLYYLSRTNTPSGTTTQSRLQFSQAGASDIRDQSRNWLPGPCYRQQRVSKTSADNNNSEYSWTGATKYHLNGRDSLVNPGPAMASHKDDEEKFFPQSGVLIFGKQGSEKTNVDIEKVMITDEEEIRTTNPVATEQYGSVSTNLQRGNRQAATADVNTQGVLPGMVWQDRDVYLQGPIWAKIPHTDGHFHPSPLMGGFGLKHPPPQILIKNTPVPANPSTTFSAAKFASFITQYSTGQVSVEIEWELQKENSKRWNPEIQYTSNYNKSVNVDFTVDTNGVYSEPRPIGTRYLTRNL

In the case of isotype (PE row) (antibody), the % of cells in the positive gate in assay [1] is 0.68%.
In turn, isotype (FITC row) (antibody) showed a % of cells in the positive gate in assay [2] of 0.28%.

B1: soluble AAVR (E. coli-expressed recombinant fusion between maltose-binding protein and AAVR PKD domains 1-5) (receptor)
chain: VSAGESVQITLPKNEVQLNAYVLQEPPKGETYTYDWQLITHPRDYSGEMEGKHSQILKLSKLTPGLYEFKVIVEGQNAHGEGYVNVTVKPEPRKNRPPIAIVSPQFQEISLPTTSTVIDGSQSTDDDKIVQYHWEELKGPLREEKISEDTAILKLSKLVPGNYTFSLTVVDSDGATNSTTANLTVNKAVDYPPVANAGPNQVITLPQNSITLFGNQSTDDHGITSYEWSLSPSSKGKVVEMQGVRTPTLQLSAMQEGDYTYQLTVTDTIGQQATAQVTVIVQPENNKPPQADAGPDKELTLPVDSTTLDGSKSSDDQKIISYLWEKTQGPDGVQLENANSSVATVTGLQVGTYVFTLTVKDERNLQSQSSVNVIVKEEINKPPIAKITGNVVITLPTSTAELDGSKSSDDKGIVSYLWTRDEGSPAAGEVLNHSDHHPILFLSNLVEGTYTFHLKVTDAKGESDTDRTTVEVKPDPR
notes: Used in the ELISA on AAV2 VLPs and in the neutralization assay; also called rAAVR1-5; MBP-AAVR PKD 1-5
Regarding B1, in assay [3], the “IC50 (read off the curve)” value was about 20 nM. The “EC50 (read off the curve)” value in assay [4] was about 100 nM.

B2: His-tagged soluble AAVR (His-tagged MBP fusion with AAVR PKD domains 1-5) (receptor)
chain: B1 chain
notes: Construct immobilised on the CM5 chip for SPR; also called AAVR (SPR ligand); not shown: His tag
As for B2, the Kd in assay [5] was 140 nM; in assay [6] it was 150 nM; in assay [7], about 150 nM. The results for the koff in assay [5] and in assay [6] were 0.0023 s⁻¹ and 0.0029 s⁻¹, respectively. The on-rate constant (kon) in assay [5] was found to be 20000 M⁻¹ s⁻¹; in assay [6], 18000 M⁻¹ s⁻¹.
